The series in a line: soluble fraction after stress (log2 fold change); higher = more stays soluble; pooled small domains, quantitative proteomics. The note with it: stress: 75 degC.
Consider “HMSPVKAPLPGVVLDIHVSVGQEVKASDTVVTLEAMKMENAIKAGVDGKVASISVGKGDSVLEGAVLLTI”, for which the “soluble fraction (log2)” value is -0.0893.
In the case of “HMSQAVTMLKAGRLLANSKGTGAAVRDLEPGMLLYPTGQKDGTMWEVEDEMGNKGWVNSTSMQLA”, the “soluble fraction (log2)” value worked out at 0.271.
Take “HMSQDEKITNYIYEGNKNTQTEAFVEAEKSYRKALSLSPEKPEALYNLGNTHFLDKQYDEASQRFF”: the “soluble fraction (log2)” value amounted to 0.0479.
In the case of “HMSQDINVFIKTNPENATIIWDGESKGTNGIFKSNAGAHRLRIEMQGYESIDQDIQVSDKQFSFEYNLKKE”, the “soluble fraction (log2)” value was 0.138.
Take “HMSQIANLLLSKNIKVNNQNIIYYETVLKYLPNNEKKEFFINAMKNNIYFTEEEIKNFGNIFN”: the “soluble fraction (log2)” value is -2.74.
As to “HMSQIQIKLDQAIMQLPEKQRFVFMLRYFEELPYEKIAQITETSIGGAKANFHQALKKMQEIIQ”, the “soluble fraction (log2)” value is -2.96.
Turning to “HMSQKVQEDFLGDIRKNEIAVTVFLINGVKLQGVITWFDDASILLRRDGHTQLIYKHAVSTIMPGVAVDI”, the “soluble fraction (log2)” value is -0.582.
Turning to “HMSQLYINATDDGWVIGNLPADAREVLLTTLGGQVVARYHVTAPSLRVKAPRKGVYIVSVETA”, the “soluble fraction (log2)” value is -2.11.
The figure for “HMSQQVVTDGVNLRLRYAPSPDAETYKWADGTNRHPEKGERFPYLGDIGDFYRIDYKGLVLYVSKQHTHL” is -2.04; for “HMSQRITYTEFVQMVKDDKVEKVEVGANQYNITPKSDDKTLVKMTYYTGFIKDENLLDLLNKHKVEIDGYI” it is -0.792.
The figure for “HMSQSIGQEKALSIALADAGVQKENALGLEVKGEYDDGQLLYEVEFRAGGVEYEYEVRASDGRIVKAERD” is 0.0638.
Turning to “HMSQSMEVLYTDLTDKDAAAIVEKLEEEKIPYQLEDQGTTILVPPGVKYTTRLKLAAEDLPKG”, the “soluble fraction (log2)” value was determined as 0.0723.
For “HMSQYVPDPVLNAALVGYLDFRKQAGKPMTDYSIRLLLVDLAKLSGNPQEQAAILDQSTKNNWIGVYALG” the value was -3.04; for “HMSRAARLALDALPDEWAQFAESRGLAGSAMAETWETFRDYWQAQPGQKGVKADWAATWRNWVRRETQNRG”, -0.378; for “HMSRDYKTELQERLQVNGPVKIEYQVIAEDESKPSFKVQLLVNDKKISEGQGRNKKAAEQQAAQAAL”, 0.0103.
For the sequence “HMSREEFLTELRKALQGRVSQQTVNDNLRYYEEYILTESHKGKTEAEVIAELGNPRLLAKSIIDAENAT”, the “soluble fraction (log2)” value is 0.0701.
Turning to “HMSRESNISTGRQLLEAQLPTWGYKKVEDIPSKQMKTALDAFNYKDVESLLQGLGEGSVALTTALRRLMP”, the “soluble fraction (log2)” value is -0.095.
Consider “HMSRFLEGILQRRAGGKNYFVPDDGSNPIFIADRNSAGAANGDRVRIAQFARRPRSGPEGEVVEILKRAK”, for which the “soluble fraction (log2)” value was -0.0772.
Consider “HMSRGAIVTGTVIEKNQSGIYVDLGYKSDGIVPIEEFDGEESKYNVGDQIRVYVKKVDDGHGQLML”, for which the “soluble fraction (log2)” value was 0.142.
For the sequence “HMSRGTRIDPNWQPSPEDRALARAEGFSDPEIDREALQFRDYWLGASGSNAVKLDWSATWRNWVRRAATNF”, the “soluble fraction (log2)” value was -0.396.
As to “HMSRKERERSQHRRDILAAGEKIFAQKGYFNATIEEIAREAEFSVGTIYNFFSNKETLYQEIIRSI”, the “soluble fraction (log2)” value is -0.418.
As for “HMSRLQDAELQAQIDKMAGAMQLRDIPVYVQDIPTINGLAAPDGRVFITQGFIDKYKLGEVSAGEIASVI”, the “soluble fraction (log2)” value was determined as 0.29.
The figure for “HMSRPLISNMLRLLNLPPTVQRKVAAGVISAGHARALLGLNDEKEIEKLANRIVAEGLSVRATEEIVAIA” is -1.62.
For “HMSRWHEFLNKSEDGMKELDEQNQKVLTLLILQRFYQTPFQAKEDEEFYREFFERLSSVNEILG” the value was -0.468.
Regarding “HMSSAYLTVRGIDIDVIYKDIKNLHIAVYPPFGRVRVAAPSHLDDDQVRLAVIQRLTWIKRQRERLRST”, the “soluble fraction (log2)” value is -1.62.
In the case of “HMSSDEAEYKLLLGQEGVAKSPLRPSGVVDFSGRRLDVQTLGDFIESGETVVVKQVNGHRVLVERK”, the “soluble fraction (log2)” value came out at 0.135.
With “HMSSDEEQLATLTRLLQKQEQIIQTLGPRNPMVSLQQYANTITKVIEMAGFKDTSQFINSQIP”, the “soluble fraction (log2)” value was determined as 0.0951.
In the case of “HMSSDLESVIGTHSQEANFALRSWGWIQPDETWKNLRPDQVSQILERANEFMAKAIESFANAQSE”, the “soluble fraction (log2)” value was -0.141.
Regarding “HMSSDLLGVRVRRARARAGLTRRRLSLLSGVSERFLAQLESGQGNISIVLIRRVAAALGAELVELIGS”, the “soluble fraction (log2)” value is -0.555.
With “HMSSEDTQSRDRARKELSNEMSRIMKRYGLDYQPRDNADDIMNRLKAAGADENTLAYVQEKLK”, the “soluble fraction (log2)” value is -0.0442.
For “HMSSEITYDKFIEMVDKDQVKEVTLQSGVLTVVPKIQKSYYQNASYKVNQMEDVDALTKRLEGTGIVFHY” the value was 0.322.
The figure for “HMSSEITYDKFIEMVEEGNVKEVTLQSDTLTIKPKHQDSAFSEKEYYTRQMESADQLTERLEGTGIEFHS” is 0.119.
With “HMSSEQRSVLFPNLAETDKVAVIEALMAAGVNARVDSASGRVTVPSGDYYNSRAILAAQGLPTS”, the “soluble fraction (log2)” value stood at 0.0148.
For the sequence “HMSSETTVPAVVGIKEDKARQLASEQGLRLRVKSREESADVEEGIIISQDPNSNTKVKKGDEIEVVVS”, the “soluble fraction (log2)” value was 0.102.
For “HMSSFSESFHKALNNLDDKHKSVFSLRHFEGFSMKEIAETLNINEGTVKSRLFYATKTLAGALKEF” the value was -3.45; for “HMSSGKTGTITLQPKQTVYGITKQYKISEADLRKLNPQLDSNLKIGDKITLPLDNIQRYSDSSSNVAQT”, 0.0568.
On to “HMSSGLLTVQEQRILEHLANGERNGDIAGRLHISEGTVKWHLHNMYRKLDAATRTQAVARARALRL”, for which the “soluble fraction (log2)” value worked out at 0.36.
Take “HMSSIGERISDVRKARGYTQDQLAERIHVSRQTISHWENERALPDFESIKQLSQVLGYDFSS”: the “soluble fraction (log2)” value is -0.123.
Take “HMSSIHQDAKQQLHEYIRTYIQPLMRAGKQVTVWDIIGHVTIRKPKLVQKIGTQQLINMVQDLLE”: the “soluble fraction (log2)” value was -0.624.
Consider “HMSSKSDQLYLQLRRRISAMKDGEPFPTVRQLMTEYQVSQSTVTPAINQLKEKGLIEAYVGRGSFVSKK”, for which the “soluble fraction (log2)” value is -0.657.
On to “HMSSKTKVEDLGLSTRTLNALIGGSIKTAGGLTRKSESDLLSLDGLGEKGITEIKEALENIGLSLK”, for which the “soluble fraction (log2)” value was 0.103.
With “HMSSLKKISIDELSPGMYVHSIVEQKGSVKIKSQGKVLKQAVVDALRKRGVKTLLIDLSKQFNPETGEP”, the “soluble fraction (log2)” value was -0.985.
For “HMSSLTPRETEVLSRMAQGDANTSIAERLVITEKAVQKHINAIFAKLGLAEEPTSARRVLAVLAFLR”, the “soluble fraction (log2)” value is -0.539.
The figure for “HMSSLTQREYEIAELVADGLSNKAIAAELSISHTTAARHVANIMNKLGFNSRSQIAAWVADRAQG” is 0.0373.
The figure for “HMSSNLSLHKEGNKIVILGLEGKSVIEVYDLMGRLLSSQTNYNPKQEITLLQPVIIRVTDTQQTKSFKV” is -1.5; for “HMSSNLTVFTRNNAIIVNSDVVRKLNVFAVDGRLVRSVDLSVGENVINNISRGMYLIDKQKVVV” it is -2.77; for “HMSSPDMSLLYSELDVKDSGQIVTILEQRNIPYEVRNNGSQIYIPSNNVQRIRLSLAQEGLPSG” it is 0.111.
For “HMSSPTAKATGSSVNIRKSASTGAAVLKRVEKGTVLEAVSISDGWVKVKYSGVTGYVSADYVKVSGL”, the “soluble fraction (log2)” value was -2.19.
In the case of “HMSSQGQNTKTGTVTASALYVRSGAGTNYSQIGYLLKNTKVEIVGQTGSWYKIKFGSGTGYVSSKYIK”, the “soluble fraction (log2)” value is -2.69.
As for “HMSSQLETTFATLIGKRVSIRLHDPEGGFRDILGHLESPYSLRNRHGNLIEFAHDQIFLWREVI”, the “soluble fraction (log2)” value was -1.82.
For “HMSSRNLIIFYDSPQAENALLATAERYGAILLHHYRNLHGIAVAIPADKDMAQAVTYFSRQPGVRQV” the value was -2.56.
As for “HMSSSKVAISQFEELVDQGQVREVVIEGSTATGTTAAGRRFAAEIPPGGMELFLSKLDDAGTTYEYSPP”, the “soluble fraction (log2)” value is 0.822.
“HMSSSYTEMQLDKLKKLLEKETLLSSEKSELKSLIHDFDKIPEVVSPLIVGEYLRLKNKYIAVINSLE”: the “soluble fraction (log2)” value was -1.25.
As for “HMSSSYTEMQLERFKELLNKETLLSSEKNELKNLISDFDKISEIVSPLVVGAYLQLKNEHIETINSLG”, the “soluble fraction (log2)” value was -0.507.
The figure for “HMSSTAIQAMIRRLIDGEDPRKPLSDARLAETLKASGVPVARRTVAKYRESMSIPSSQDRLRI” is -0.577.
Regarding “HMSSTSTKTQNIVHIVKSGETLSAIASKYGVSVDNIKKWNNLSSDKLSIGQKLKINPTTQTSS”, the “soluble fraction (log2)” value amounted to 0.29.
Take “HMSSVEEILQTLGGRIRTQRLAQGISQQVLADRAGLSLGAVRQLEGSGQSGLDTLVRVLFVLGIVDEL”: the “soluble fraction (log2)” value was -2.27.
“HMSSVHTMEVKSTTQIKVLDENKNLSSYYSMKNPVSFNYRLFFLNQDELKKLQEDLKTNNDIQSIDIKYA”: the “soluble fraction (log2)” value is -0.484.
Turning to “HMSTALTPLTTREREVLALMAEGLTNSGIAARLVLTDRTVETHVSRILHKLGLGETTTNEHRRVLAVLRYL”, the “soluble fraction (log2)” value is -1.72.
As to “HMSTASPEELRQTPERRRLIEYLREHGGHGRTSEIAAALGIDDSTASRLLRRLADNGLIVRTQYGEYTLLQ”, the “soluble fraction (log2)” value is -0.184.
As to “HMSTEAVVMSSSVSVKSSPDKASTDLFVLHEGTKVRTVSELGDWREIVIADGKKGWVEARTIET”, the “soluble fraction (log2)” value was 0.756.
The figure for “HMSTEPLALVGKTGIAATVLRPSGRIEVDDKYYDAVSLGAFIEKGEMVNIVKYENLQLYVAKL” is -2.18.
With “HMSTFAQNLRALMEKRGVSQNELARSAGLTQSAINKILTGKTKQPGIDTTEAIARVLNVSVAQLIYT”, the “soluble fraction (log2)” value is -1.4.
On to “HMSTFTPYLVKVTTSVLNIRKGAGTNYGTNGSIRDMGTYTIVAEADGQGASKWGKLKSGAGWISLDYTKK”, for which the “soluble fraction (log2)” value is -2.33.
With “HMSTILERLIMLQEQSGMNQKQLQKELGLSNSAFSDWKKGKGRPSVEALVRFSEFFGVSMDWLAFG”, the “soluble fraction (log2)” value is -2.27.
The figure for “HMSTKRQKELLEYVDRFITEHGYGPSYREIMNAIGYKSVSTVAIHIDGLIAKGYLRKRDNSARSLEVV” is -1.17; for “HMSTKYSSNIISLVKGLMEEDQYKDLMGPPLKKEIIKKVESITDTFPYKFDKDDKEFIVKKVLISLRK” it is -1.77; for “HMSTLKSALDEIPGIGAARKRALLNHFGSTRVISSVGVKDLEQVEGVSKKIALLIYGYFHDK” it is -2.57.
Consider “HMSTLSIHIPDKFAGQRLDQALAELYSQFSRSRLQQWLNDGELLVDGKSVKANKKVLGGEFIQILK”, for which the “soluble fraction (log2)” value is -1.24.
Consider “HMSTPENLGGRNTAKARISWLENGVKQELESDFPAAEVVKLSSRFGGEVPELTVIRPSLEDIYLKMIG”, for which the “soluble fraction (log2)” value was -0.00898.

For the origin of these results see the domain aggregation screens of Martell et al. (2025).
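Further: 20 min heating vs room temperature control held 20 min.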
